{
  "source": "patent US20240383958A1",
  "about": "“APELIN RECEPTOR AGONISTS AND USES THEREOF” (VISTERRA, INC., priority 2023, published 2024)",
  "molecules": {"B1": {"name": "ELA-I (Fc fusion)", "chain": "DKTHTSPPSPAPEAAGGPSVFLFPPKPKDTLMISRTPEVTCVVVDVSHEDPEVKFNWYVDGVEVHNAKTKPREEQYNSTYRVVSVLTVLHQDWLNGKEYKCKVSNKALPAPIEKTISKAKGQPREPQVYTLPPSREEMTKNQVNLTCLVKGFYPSDIAVEWESNGQPENNYKTTPPVLDSDGSFFLNSTLTVDKSRWQQGNVFSCSVMHEALHNHYTQKSLSLSPGKGGGGSGGGGSGGGGSKLRKHNSLQRRYMPLHSRVPFP"}, "B2": {"name": "ELA-J (Fc fusion)", "chain": "B1 chain with S249C, R252E, Y254C"}, "B3": {"name": "ELA-A: Fc-linker fusion of wild-type elabela-22 KLRKHNCLQRRCMPLHSRVPFP (protein)", "chain": "MRAWIFFLLCLAGRALADKTHTSPPSPAPEAAGGPSVFLFPPKPKDTLMISRTPEVTCVVVDVSHEDPEVKFNWYVDGVEVHNAKTKPREEQYNSTYRVVSVLTVLHQDWLNGKEYKCKVSNKALPAPIEKTISKAKGQPREPQVYTLPPSREEMTKNQVNLTCLVKGFYPSDIAVEWESNGQPENNYKTTPPVLDSDGSFFLNSTLTVDKSRWQQGNVFSCSVMHEALHNHYTQKSLSLSPGKGGGGSGGGGSGGGGSKLRKHNCLQRRCMPLHSRVPFP"}, "B4": {"name": "ELA-C: Fc-linker fusion of elabela analogue KLRKHNCLQRRCMILHSRVPFP (P14I) (protein)", "chain": "B3 chain with P273I"}, "B5": {"name": "ELA-K: Fc-linker fusion of elabela analogue KLRKHNCLIRRCMPLHSRVPFP (Q9I) (protein)", "chain": "B3 chain with Q268I"}, "B6": {"name": "ELA-L: Fc-linker fusion of elabela analogue KLRKHNCATRRCMPLHSRVPFP (L8A, Q9T) (protein)", "chain": "B3 chain with L267A, Q268T"}, "B7": {"name": "ELA-B: Fc-linker fusion of elabela analogue KLNKHNCLQRRCMPLHSRVPFP (R3N) (protein)", "chain": "B3 chain with R262N"}, "B8": {"name": "ELA-I: Fc-linker fusion of elabela analogue KLRKHNSLQRRYMPLHSRVPFP (C7S, C12Y) (protein)", "chain": "B3 chain with C266S, C271Y"}, "B9": {"name": "ELA-G: Fc-linker fusion of elabela analogue KLRKHNCLQRRCMPLHSYVPFP (R18Y) (protein)", "chain": "B3 chain with R277Y"}, "B10": {"name": "ELA-F: Fc-linker fusion of elabela analogue KLRKHNCLKRRCMPLHSRVPFP (Q9K) (protein)", "chain": "B3 chain with Q268K"}, "B11": {"name": "ELA-H: Fc-linker fusion of elabela analogue KLRKHNCLQRRCMPYHSRVPFP (L15Y) (protein)", "chain": "B3 chain with L274Y"}, "B12": {"name": "APL-B: Fc-linker fusion of apelin analogue QRPRLSHKGPMVF (P12V) (protein)", "chain": "MRAWIFFLLCLAGRALADKTHTSPPSPAPEAAGGPSVFLFPPKPKDTLMISRTPEVTCVVVDVSHEDPEVKFNWYVDGVEVHNAKTKPREEQYNSTYRVVSVLTVLHQDWLNGKEYKCKVSNKALPAPIEKTISKAKGQPREPQVYTLPPSREEMTKNQVNLTCLVKGFYPSDIAVEWESNGQPENNYKTTPPVLDSDGSFFLNSTLTVDKSRWQQGNVFSCSVMHEALHNHYTQKSLSLSPGKGGGGSGGGGSGGGGSQRPRLSHKGPMVF"}, "B13": {"name": "APL-J: Leader-Fc-linker fusion of apelin analogue QRPRLSHKGPAAY (M11A, P12A, F13Y) (protein)", "chain": "B12 chain with M270A, V271A, F272Y"}, "B14": {"name": "APL-H: Leader-Fc-linker fusion of apelin analogue QRPRLSHKGPMHW (P12H, F13W) (protein)", "chain": "B12 chain with V271H, F272W"}, "B15": {"name": "APL-G: Fc-linker fusion of apelin analogue QRPRLSHKGPMAF (P12A) (protein)", "chain": "B12 chain with V271A"}, "B16": {"name": "APL-F: Fc-linker fusion of apelin analogue QRPRLSHKGPAPY (M11A, F13Y) (protein)", "chain": "B12 chain with M270A, V271P, F272Y"}, "B17": {"name": "APL-I: Leader-Fc-linker fusion of apelin analogue QRPRLSHKGPAAW (M11A, P12A, F13W) (protein)", "chain": "B12 chain with M270A, V271A, F272W"}, "B18": {"name": "APL-E: Fc-linker fusion of apelin analogue QRPRLSHKGPHPF (M11H) (protein)", "chain": "B12 chain with M270H, V271P"}},
  "key": {"APJ-eGFP fusion protein": {"test_system": "APJ-eGFP fusion protein", "assay": "Internalization assay, CHO-M1 cells expressing APJ-eGFP, high-content imaging", "type": "cell-based", "set-up": "key: 0: No Internalization; >1000; 2: 100-1000; 3: 10-100; 4: <10", "conditions": "lowest concentration at which maximum internalization was observed; 0.914 nM to 2000 nM", "experimental": "In this example, the internalization of exemplary apelin receptor agonist was assessed. CHO-M1 cells expressing an APJ-eGFP fusion protein were stained and plated in a 96-well plate. Apelin receptor agonists were serially diluted and added to the wells at concentrations ranging from 0.914 nM to 2000 nM. The cells were later imaged using an Operetta CLS™ high-content analysis system. APJ-eGFP signal was measured in the membrane and cytoplasmic region, and the ratio of membrane signal to total signal was calculated (E ratio). An internalization score was assigned based on the lowest concentration of the compound at which maximum internalization was observed. The internalization score for each apelin receptor agonist was plotted against the EC50 values for cAMP signaling and beta-arrestin signaling as shown in FIG. 2 and FIG. 3."}, "[1]": {"target": "T1, apelin receptor (AGTRL1) on CHO-K1 cells (UniProt P35414 1-380, limits assumed)", "T1 sequence (looked up)": "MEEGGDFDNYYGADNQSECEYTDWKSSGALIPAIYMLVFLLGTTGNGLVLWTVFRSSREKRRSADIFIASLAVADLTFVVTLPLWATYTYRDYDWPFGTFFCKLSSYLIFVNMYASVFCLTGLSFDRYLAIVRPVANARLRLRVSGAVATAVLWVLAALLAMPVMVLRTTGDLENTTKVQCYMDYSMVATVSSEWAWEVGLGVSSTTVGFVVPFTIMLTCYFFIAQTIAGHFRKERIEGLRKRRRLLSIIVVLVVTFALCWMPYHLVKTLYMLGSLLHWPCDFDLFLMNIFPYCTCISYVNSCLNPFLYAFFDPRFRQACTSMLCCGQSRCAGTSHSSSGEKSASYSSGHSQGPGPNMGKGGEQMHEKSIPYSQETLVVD", "assay": "cell-based or functional assay"}, "[2]": {"assay": "Proteolysis during production detected using mass spectroscopy", "type": "physicochemical", "conditions": "proteolytic stability", "source_text": "Proteolysis during production was detected using mass spectroscopy, which provides insights into the proteolytic stability of the apelin receptor agonists."}},
  "note": "Residue numbers refer to the chain shown, from its start. Names may count otherwise.",
  "data": [
    {"molecule": "CSCC[C@H](NC(=O)[C@@H]1CSSC[C@H](NC(=O)[C@H](CC(N)=O)NC(=O)[C@H](Cc2c[nH]cn2)NC(=O)[C@H](CCCCN)NC(=O)[C@H](CCCNC(=N)N)NC(=O)[C@H](CC(C)C)NC(=O)[C@@H](N)CCCCN)C(=O)N[C@@H](CC(C)C)C(=O)N[C@@H](CCC(N)=O)C(=O)N[C@@H](CCCNC(=N)N)C(=O)N[C@@H](CCCNC(=N)N)C(=O)N1)C(=O)N1CCC[C@H]1C(=O)N[C@@H](CC(C)C)C(=O)N[C@@H](Cc1c[nH]cn1)C(=O)N[C@@H](CO)C(=O)N[C@@H](CCCNC(=N)N)C(=O)N[C@H](C(=O)N1CCC[C@H]1C(=O)N[C@@H](Cc1ccccc1)C(=O)N1CCC[C@H]1C(=O)O)C(C)C", "note": "[Elabela-22, elabela-22, reference compound]", "values": [
      {"measurement": "Internalization Score", "setting": "APJ-eGFP fusion protein", "result": "1 (>1000)"}
    ]},
    {"molecule": "B1", "values": [
      {"measurement": "beta-Arrestin EC50 (nM) Exp. 1", "setting": "[1]", "result": 17.3, "unit": "nM"},
      {"measurement": "beta-Arrestin EC50 (nM) Exp. 2", "setting": "[1]", "result": 150, "unit": "nM"},
      {"measurement": "cAMP EC50 (nM) Exp. 1", "setting": "[1]", "result": 22.9, "unit": "nM"},
      {"measurement": "cAMP EC50 (nM) Exp. 2", "setting": "[1]", "result": 3.19, "unit": "nM"}
    ]},
    {"molecule": "B2", "values": [
      {"measurement": "beta-Arrestin EC50 (nM) Exp. 1", "setting": "[1]", "result": 73.7, "unit": "nM"},
      {"measurement": "cAMP EC50 (nM) Exp. 1", "setting": "[1]", "result": 18.6, "unit": "nM"},
      {"measurement": "cAMP EC50 (nM) Exp. 2", "setting": "[1]", "result": 133, "unit": "nM"}
    ]},
    {"molecule": "B3", "values": [
      {"measurement": "Proteolysis During Production?", "setting": "[2]", "result": "No"},
      {"measurement": "Internalization Score", "setting": "APJ-eGFP fusion protein", "result": "3 (10-100)"}
    ]},
    {"molecule": "B4", "values": [
      {"measurement": "Proteolysis During Production?", "setting": "[2]", "result": "No"},
      {"measurement": "Internalization Score", "setting": "APJ-eGFP fusion protein", "result": "2 (100-1000)"}
    ]},
    {"molecule": "B5", "values": [
      {"measurement": "Proteolysis During Production?", "setting": "[2]", "result": "No"},
      {"measurement": "Internalization Score", "setting": "APJ-eGFP fusion protein", "result": "2 (100-1000)"}
    ]},
    {"molecule": "B6", "values": [
      {"measurement": "Proteolysis During Production?", "setting": "[2]", "result": "No"},
      {"measurement": "Internalization Score", "setting": "APJ-eGFP fusion protein", "result": "2 (100-1000)"}
    ]},
    {"molecule": "B7", "values": [
      {"measurement": "Proteolysis During Production?", "setting": "[2]", "result": "No"},
      {"measurement": "Internalization Score", "setting": "APJ-eGFP fusion protein", "result": "3 (10-100)"}
    ]},
    {"molecule": "B8", "values": [
      {"measurement": "Proteolysis During Production?", "setting": "[2]", "result": "Yes"}
    ]},
    {"molecule": "B9", "values": [
      {"measurement": "Proteolysis During Production?", "setting": "[2]", "result": "No"},
      {"measurement": "Internalization Score", "setting": "APJ-eGFP fusion protein", "result": "1 (>1000)"}
    ]},
    {"molecule": "B10", "values": [
      {"measurement": "Proteolysis During Production?", "setting": "[2]", "result": "No"},
      {"measurement": "Internalization Score", "setting": "APJ-eGFP fusion protein", "result": "3 (10-100)"}
    ]},
    {"molecule": "B11", "values": [
      {"measurement": "Proteolysis During Production?", "setting": "[2]", "result": "No"},
      {"measurement": "Internalization Score", "setting": "APJ-eGFP fusion protein", "result": "2 (100-1000)"}
    ]},
    {"molecule": "B12", "values": [
      {"measurement": "Proteolysis During Production?", "setting": "[2]", "result": "No"},
      {"measurement": "Internalization Score", "setting": "APJ-eGFP fusion protein", "result": "2 (100-1000)"}
    ]},
    {"molecule": "B13", "values": [
      {"measurement": "Proteolysis During Production?", "setting": "[2]", "result": "No"},
      {"measurement": "Internalization Score", "setting": "APJ-eGFP fusion protein", "result": "1 (>1000)"}
    ]},
    {"molecule": "B14", "values": [
      {"measurement": "Proteolysis During Production?", "setting": "[2]", "result": "No"},
      {"measurement": "Internalization Score", "setting": "APJ-eGFP fusion protein", "result": 0}
    ]},
    {"molecule": "B15", "values": [
      {"measurement": "Proteolysis During Production?", "setting": "[2]", "result": "No"},
      {"measurement": "Internalization Score", "setting": "APJ-eGFP fusion protein", "result": "3 (10-100)"}
    ]},
    {"molecule": "B16", "values": [
      {"measurement": "Proteolysis During Production?", "setting": "[2]", "result": "No"},
      {"measurement": "Internalization Score", "setting": "APJ-eGFP fusion protein", "result": "1 (>1000)"}
    ]},
    {"molecule": "B17", "values": [
      {"measurement": "Proteolysis During Production?", "setting": "[2]", "result": "No"},
      {"measurement": "Internalization Score", "setting": "APJ-eGFP fusion protein", "result": "1 (>1000)"}
    ]},
    {"molecule": "B18", "values": [
      {"measurement": "Proteolysis During Production?", "setting": "[2]", "result": "Yes"},
      {"measurement": "Internalization Score", "setting": "APJ-eGFP fusion protein", "result": "1 (>1000)"}
    ]}
  ]
}
